# Reference: US20180339057A1 (Novo Nordisk, published 2018)
# Where a chain is given by its changes, count along the chain named. Numbers in names are those of the source.
# T1: human MIC-1 receptor (hGFRAL, GDNF family receptor alpha like), full length (human, UniProt Q6UXV0 19-394)
# T1 construct: whole, on cells
# T1 sequence (looked up): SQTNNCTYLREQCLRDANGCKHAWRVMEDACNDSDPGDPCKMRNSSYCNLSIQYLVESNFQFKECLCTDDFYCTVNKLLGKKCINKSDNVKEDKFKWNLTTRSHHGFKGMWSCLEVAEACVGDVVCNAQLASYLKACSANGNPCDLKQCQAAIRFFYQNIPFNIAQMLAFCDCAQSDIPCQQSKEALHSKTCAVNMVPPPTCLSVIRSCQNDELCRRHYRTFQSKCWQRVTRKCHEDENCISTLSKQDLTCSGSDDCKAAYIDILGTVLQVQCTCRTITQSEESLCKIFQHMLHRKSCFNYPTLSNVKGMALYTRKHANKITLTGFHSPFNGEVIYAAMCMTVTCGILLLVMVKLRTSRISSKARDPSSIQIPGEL
# B1: SEPATSGCETPGTSESATPESGPGTSTEPSEG-MIC-1, des-N3, M57L, M86L (Cys mutation S(-25)C) (ligand)
# chain: SEPATSGCETPGTSESATPESGPGTSTEPSEGARGDHCPLGPGRCCRLHTVRASLEDLGWADWVLSPREVQVTMCIGACPSQFRAANLHAQIKTSLHRLKPDTVPAPCCVPASYNPLVLIQKTDTGVSLQTYDDLLAKDCHCI
# notes: homodimer; no protractor
# B2: Compound 15 (ligand)
# chain 1: B1 chain with C8S, K100R, K122R, K138R
# chain 2: B1 chain with C8S, K100R, K122R, K138R
# modifications: alpha-amino group of the N-terminal Ser-32 (residue 1 of SEQ ID NO: 312): N-[4-[[[2-[2-[2-[[2-[2-[2-[[(4S)-4-carboxy-4-(17-carboxyheptadecanoylamino)butanoyl]amino]ethoxy]ethoxy]acetyl]amino]ethoxy]ethoxy]acetyl]amino]methyl]phenyl]methyl (protractor of Example 10.1)
# notes: also called monoalkylated
# B3: Compound 10 (ligand)
# chain: B1 chain with C8S
# modifications: alpha-amino group of the N-terminal Ser-32 (residue 1 of SEQ ID NO: 164): N-[4-[[[2-[2-[2-[[2-[2-[2-[[(4S)-4-carboxy-4-(17-carboxyheptadecanoylamino)butanoyl]amino]ethoxy]ethoxy]acetyl]amino]ethoxy]ethoxy]acetyl]amino]methyl]phenyl]methyl (protractor of Example 10.1)
# notes: homodimer with one protractor on each of the two N-terminal extensions; also called Formula A (C18)
# B4: SEPCTSGSETPGTSESATPESGPGTSTEPSEG-MIC-1, des-N3, M57L, M86L (Cys mutation A(-29)C) (ligand)
# chain: B1 chain with A4C, C8S
# notes: homodimer; no protractor
# B5: SEPCTSGSETPGTSESATPESGPGTSTEPSEG-MIC-1, des-N3 (Cys mutation A(-29)C) (ligand)
# chain: B1 chain with A4C, C8S, L88M, L117M
# notes: homodimer; no protractor
# B6: SEPATSGSETPGTSESATPESGPGTSTEPCEG-MIC-1, des-N3, M57L, M86L (Cys mutation S(-3)C) (ligand)
# chain: B1 chain with C8S, S30C
# notes: homodimer; no protractor
# B7: SEPATSGSETPGTSESACPESGPGTSTEPSEG-MIC-1, des-N3, M57L, M86L (Cys mutation T(-15)C) (ligand)
# chain: B1 chain with C8S, T18C
# notes: homodimer; no protractor
# B8: SEPATSGSETPGTSESATPESGPGTSTEPSEG-MIC-1, del-N3, M57L, M86L, K69R, K107R, K91R (ligand)
# chain: B1 chain with C8S, K100R, K122R, K138R
# notes: homodimer; no protractor
# B9: Macrophage Inhibitory Cytokine-1 (MIC-1), human wild type, monomer sequence SEQ ID NO:1 (ligand)
# chain: ARNGDHCPLGPGRCCRLHTVRASLEDLGWADWVLSPREVQVTMCIGACPSQFRAANMHAQIKTSLHRLKPDTVPAPCCVPASYNPMVLIQKTDTGVSLQTYDDLLAKDCHCI
# notes: covalently linked homodimer; 112 amino acid monomer = residues 197-308 of the precursor; also called wtMIC-1
# Tests used:
# [1] = target: T1, human MIC-1 receptor (hGFRAL, GDNF …); test: SPA: displacement of 50 pM human [125I]-MIC-1 from BHK21-hGFRAL-IRES-hRET cell membranes
# Method: Binding potencies of MIC-1 compounds were calculated by IC50 of displacement curves.
# BHK21-hGFRAL-IRES-hRET cells were cultured at +37° C. in a humidified atmosphere with 5% CO₂ in complete medium consisting of DMEM with high glucose and sodium pyrovate, heat inactivated 10% Fetal Bovine Serum, 1% Penicillin-Streptomycin, 1 mg/ml G418-Geneticin and 400 ug/ml Hygromycin. Cells were washed twice in ice cold Dulbecco's phosphate-buffered saline (DPBS) and detached mechanically by scraping, transferred in ice cold DPBS into conical centrifuge tubes and centrifuged for 5 min at 1500 rpm at +20° C. Cell pellet was resuspended in a total amount of 10 ml ice cold homogenization buffer A (50 mM Tris, 2.5 mM EDTA, adjust pH7.4 with one EDTA-free protease inhibitor cocktail tablet/50 ml) and homogenized for 20 seconds. The homogenate was centrifuged at 16000 rpm in 20 minutes at +4° C. The supernatant was discarded and the pellet was reconstituted in 10 ml homogenization buffer B (50 mM Tris, 320 mM Sucrose, adjust pH 7.4 with one EDTA-free protease inhibitor cocktail tablet/50 ml) and homogenized for 20 seconds and centrifuged at 16000 rpm in 20 minutes at +4° C. This procedure was repeated one more time. The supernatant was discarded and the pellet was reconstituted in 3 ml homogenization buffer B and homogenized for 10 seconds at low speed. Protein concentration was determined by standard Bradford method and 1.5 mg protein/tube was aliquoted to cryotubes and stored at −80° C. Binding assays were performed in white 96-well plates in a total volume of 200 μl per well. Wheat germ agglutinin SPA beads were reconstituted in assay buffer (50 mM Tris/HCl, 4.5 mM MgCl₂, 0.02% Tween 20 and 0.25% Ovalbumin pH 7.4) and mixed with membrane preparation to give a final concentration of 0.5 mg SPA beads and 10 μg total protein per well. […] The plate was sealed and incubated at +22° C. for 2 hours in a plate shaker set at 350 rpm and thereafter centrifuged at 1500 rpm for 10 minutes prior to reading of SPA bead light emission.
# [2] = target: T1, human MIC-1 receptor (hGFRAL, GDNF …); test: cell-based or functional assay
# [3] = target: T1, human MIC-1 receptor (hGFRAL, GDNF …); test: cell-based or functional assay; remark: listed apart in the source
Binder,IC50 [1],Luciferase + 0.1% HSA NNDK EC50 (pM) [2],Luciferase NNDK EC50 (pM) [2],Emax (%) [3],pERK EC50 (nM) [3]
B1,43 nM,34 pM,57 pM,–,–
B2,39 nM,39 pM,61 pM,–,–
B3,20 nM,146 pM,71 pM,–,–
B4,80 nM,75 pM,100 pM,–,–
B5,6.7 nM,47 pM,70 pM,–,–
B6,83 nM,243 pM,217 pM,–,–
B7,29 nM,115 pM,125 pM,–,–
B8,116 nM,35 pM,42 pM,–,–
B9,0.67 nM,36 pM,59 pM,100%,0.3 nM
